This is an account of results in PMC7617692, “Structural evolution of fibril polymorphs during amyloid assembly” (Cell, 2023).

Bridge positions count the residues as written; N and C are the ends. Ends that are not written are not given here.

The data set concerns the molecule itself. Put plainly: cryo-EM structure; fibrils grown quiescently in glass vials, 30 uM peptide, 20 mM ammonium acetate pH 6.8, room temperature; sampled at 3 weeks (lag phase), undiluted; helical reconstruction; repeated with a second reaction.

B1: human islet amyloid polypeptide S20G variant (IAPP-S20G) (peptide)
chain: KCNTATCATQRLANFLVHSGNNFGAILSSTNVGSNTY-NH2
modifications: disulfide 2-7; N-terminus assumed
SMILES: CC[C@H](C)[C@H](NC(=O)[C@H](C)NC(=O)CNC(=O)[C@H](Cc1ccccc1)NC(=O)[C@H](CC(N)=O)NC(=O)[C@H](CC(N)=O)NC(=O)CNC(=O)[C@H](CO)NC(=O)[C@H](Cc1c[nH]cn1)NC(=O)[C@@H](NC(=O)[C@H](CC(C)C)NC(=O)[C@H](Cc1ccccc1)NC(=O)[C@H](CC(N)=O)NC(=O)[C@H](C)NC(=O)[C@H](CC(C)C)NC(=O)[C@H](CCCNC(=N)N)NC(=O)[C@H](CCC(N)=O)NC(=O)[C@@H](NC(=O)[C@H](C)NC(=O)[C@@H]1CSSC[C@H](NC(=O)[C@@H](N)CCCCN)C(=O)N[C@@H](CC(N)=O)C(=O)N[C@@H]([C@@H](C)O)C(=O)N[C@@H](C)C(=O)N[C@@H]([C@@H](C)O)C(=O)N1)[C@@H](C)O)C(C)C)C(=O)N[C@@H](CC(C)C)C(=O)N[C@@H](CO)C(=O)N[C@@H](CO)C(=O)N[C@H](C(=O)N[C@@H](CC(N)=O)C(=O)N[C@H](C(=O)NCC(=O)N[C@@H](CO)C(=O)N[C@@H](CC(N)=O)C(=O)N[C@H](C(=O)N[C@@H](Cc1ccc(O)cc1)C(N)=O)[C@@H](C)O)C(C)C)[C@@H](C)O
notes: islet amyloid polypeptide (IAPP, amylin), human, 37-residue hormone, familial early-onset T2D variant S20G; Assembles into amyloid fibrils of two, three or four protofilaments; the number of chains in a fibril is open-ended; Purity >95% by analytical HPLC, mass 3873.3 Da; also called hIAPP-S20G; S20G-IAPP; source: synthetic peptide (Fmoc solid phase, oxidised, reverse-phase HPLC purified)
Take B1: the binding result is reported as “binds”.
